Reference: the Human Domainome abundance scans (Beltran et al. 2025)
± gives the uncertainty stated by the source.

B1: V(D)J recombination-activating protein 2, residues 415 to 491; numbered along this chain, P55895 (parent)
chain: YWITCCPTCDVDINTWVPFYSTELNKPAMIYCSHGDGHWVHAQCMDLAERTLIHLSAGSNKYYCNEHVEIARALHTP

Variants of: B1
Assay: abundance fitness (aPCA) (normalised: wild type 0, dead -1); higher = more abundant; growth selection in yeast, the domain comes from the species named
Conditions: Homo sapiens
Work on P77A yielded an abundance fitness of -0.123 ± 0.21. In the case of S59I, the abundance fitness is reported as 0.103 ± 0.16. S59N showed an abundance fitness of -0.25 ± 0.21. In the case of S59T, the abundance fitness is reported as 0.02 ± 0.093. S59P showed an abundance fitness of 0.062 ± 0.091. S59W showed an abundance fitness of -0.225 ± 0.071. S59Q showed an abundance fitness of -0.224 ± 0.077. Variant S59G has an abundance fitness of 0.019 ± 0.044. With S59E the abundance fitness was 0.002 ± 0.12. Variant H67F has an abundance fitness of -0.485 ± 0.1. H67I showed an abundance fitness of -0.874 ± 0.31. H67T showed an abundance fitness of -0.22 ± 0.076. For H67M, the abundance fitness was -0.579 ± 0.053. H67S gave an abundance fitness of -0.196 ± 0.054. H67D showed an abundance fitness of -0.424 ± 0.1. H67P showed an abundance fitness of -0.369 ± 0.069. Variant W39I has an abundance fitness of -0.278 ± 0.078. In the case of W39H, the abundance fitness is reported as -0.144 ± 0.11. W39G showed an abundance fitness of -0.54 ± 0.034. Variant W39P has an abundance fitness of -0.294 ± 0.064. With W39V the abundance fitness was -0.193 ± 0.034. Work on W39N yielded an abundance fitness of -0.274 ± 0.1. I53E showed an abundance fitness of -0.194 ± 0.13. For I53A, the abundance fitness was 0.154 ± 0.11. I53W showed an abundance fitness of -0.124 ± 0.12. I53V gave an abundance fitness of -0.048 ± 0.096. Variant I53H has an abundance fitness of -0.069 ± 0.18. Work on H38Y yielded an abundance fitness of -0.543 ± 0.46. For A73W, the abundance fitness was -0.104 ± 0.086. A73I gave an abundance fitness of -0.042 ± 0.098. A73P gave an abundance fitness of 0.027 ± 0.13. In the case of A73R, the abundance fitness is reported as 0.001 ± 0.057. Work on V11M yielded an abundance fitness of -0.264 ± 0.19. Variant V11W has an abundance fitness of -0.178 ± 0.29. Variant P27Q has an abundance fitness of -0.79 ± 0.33. With P27C the abundance fitness was -0.938 ± 0.32. A28D showed an abundance fitness of -0.318 ± 0.13. A28S gave an abundance fitness of -0.035 ± 0.15. Work on A28N yielded an abundance fitness of 0.078 ± 0.33. For A28V, the abundance fitness was -0.155 ± 0.14. Variant A28L has an abundance fitness of -0.094 ± 0.095. For A28Q, the abundance fitness was -0.104 ± 0.15. Work on T8V yielded an abundance fitness of -0.196 ± 0.23. T8G showed an abundance fitness of -0.277 ± 0.14. Work on T8N yielded an abundance fitness of 0.091 ± 0.18. Work on T8W yielded an abundance fitness of -0.627 ± 0.41. Work on C6M yielded an abundance fitness of -0.393 ± 0.35. For Y1R, the abundance fitness was -0.469 ± 0.24. For Y1H, the abundance fitness was -0.399 ± 0.18. Y1S showed an abundance fitness of -0.084 ± 0.053. With Y1F the abundance fitness was -0.07 ± 0.11. For D46E, the abundance fitness was -0.05 ± 0.075. Variant D46Q has an abundance fitness of 0.085 ± 0.045. In the case of D46L, the abundance fitness is reported as 0.031 ± 0.045. In the case of D46K, the abundance fitness is reported as 0.122 ± 0.074. For D46W, the abundance fitness was -0.193 ± 0.07. For D46Y, the abundance fitness was -0.113 ± 0.12. In the case of F19W, the abundance fitness is reported as 0.043 ± 0.19. For F19P, the abundance fitness was -0.509 ± 0.15. With N60G the abundance fitness was -0.017 ± 0.066. In the case of N60I, the abundance fitness is reported as -0.045 ± 0.099. For N60Q, the abundance fitness was -0.069 ± 0.08. In the case of N60R, the abundance fitness is reported as -0.058 ± 0.056. A71L showed an abundance fitness of 0.027 ± 0.037. A71E gave an abundance fitness of 0.085 ± 0.072. Work on A71H yielded an abundance fitness of -0.179 ± 0.12. A71Y gave an abundance fitness of 0.124 ± 0.15. With A71W the abundance fitness was -0.207 ± 0.18. In the case of A71R, the abundance fitness is reported as 0.026 ± 0.052. Work on A71C yielded an abundance fitness of -0.033 ± 0.061. N25G gave an abundance fitness of 0.01 ± 0.11. Work on N25S yielded an abundance fitness of -0.042 ± 0.12. Work on N25Q yielded an abundance fitness of 0.132 ± 0.24. Work on N25T yielded an abundance fitness of -0.05 ± 0.17. For N25M, the abundance fitness was -0.254 ± 0.24. In the case of P7V, the abundance fitness is reported as -0.006 ± 0.34. With P7K the abundance fitness was 0.084 ± 0.31. For L24C, the abundance fitness was 0.027 ± 0.096. In the case of L24V, the abundance fitness is reported as -0.083 ± 0.12. Variant L24A has an abundance fitness of -0.164 ± 0.15. L24T showed an abundance fitness of -0.081 ± 0.22. A48W showed an abundance fitness of -0.04 ± 0.089. Variant A48P has an abundance fitness of 0.037 ± 0.067. Variant A48G has an abundance fitness of -0.078 ± 0.076. A48D showed an abundance fitness of -0.044 ± 0.09. A57I showed an abundance fitness of 0.216 ± 0.29. For A57G, the abundance fitness was -0.068 ± 0.076. For A57E, the abundance fitness was -0.03 ± 0.075. A57D gave an abundance fitness of 0.04 ± 0.18. With A57P the abundance fitness was -0.029 ± 0.095. Work on A57T yielded an abundance fitness of -0.121 ± 0.12. Work on I3W yielded an abundance fitness of -0.159 ± 0.068. I3Q showed an abundance fitness of -0.186 ± 0.075. Variant I3M has an abundance fitness of -0.041 ± 0.07. I3K gave an abundance fitness of -0.018 ± 0.057. Work on G35V yielded an abundance fitness of -0.175 ± 0.36. For G35L, the abundance fitness was -0.042 ± 0.15. For G35W, the abundance fitness was -0.291 ± 0.14. G35K gave an abundance fitness of 0.042 ± 0.28. With G35I the abundance fitness was -0.07 ± 0.3. For E23F, the abundance fitness was -0.901 ± 0.34. With E23D the abundance fitness was 0.122 ± 0.17. Variant E23C has an abundance fitness of -0.851 ± 0.42. Y62L gave an abundance fitness of -0.304 ± 0.072. Variant Y62M has an abundance fitness of -0.206 ± 0.19. Y62G gave an abundance fitness of -0.495 ± 0.071. K26E showed an abundance fitness of -0.129 ± 0.44. Work on K26Y yielded an abundance fitness of -0.421 ± 0.43. Work on K26G yielded an abundance fitness of -0.17 ± 0.15. Variant K26Q has an abundance fitness of -0.179 ± 0.19. For K26F, the abundance fitness was -0.116 ± 0.22. Work on V68W yielded an abundance fitness of -0.076 ± 0.2. Work on V68P yielded an abundance fitness of -0.125 ± 0.25. Variant S56L has an abundance fitness of -0.046 ± 0.064. S56P gave an abundance fitness of -0.074 ± 0.095. With S56H the abundance fitness was -0.038 ± 0.14. S56A showed an abundance fitness of 0.078 ± 0.063. Variant S56I has an abundance fitness of -0.113 ± 0.13. In the case of C9Y, the abundance fitness is reported as -0.739 ± 0.33. In the case of M29L, the abundance fitness is reported as 0.072 ± 0.19. M29I showed an abundance fitness of -0.234 ± 0.29. M29S gave an abundance fitness of 0.208 ± 0.28. In the case of M29G, the abundance fitness is reported as -0.377 ± 0.23. For H54P, the abundance fitness was -0.007 ± 0.04. For H54M, the abundance fitness was -0.087 ± 0.12. H54G showed an abundance fitness of 0.035 ± 0.054. For H54E, the abundance fitness was 0.02 ± 0.081. For H54V, the abundance fitness was 0.008 ± 0.073. With H54D the abundance fitness was 0.042 ± 0.18. In the case of H54A, the abundance fitness is reported as 0.004 ± 0.066. With R72N the abundance fitness was 0.059 ± 0.21. For R72K, the abundance fitness was 0.022 ± 0.18. In the case of R72Q, the abundance fitness is reported as -0.085 ± 0.12. H34M showed an abundance fitness of -0.046 ± 0.13. Variant H34N has an abundance fitness of -0.089 ± 0.11. In the case of H34V, the abundance fitness is reported as -0.132 ± 0.05. With H34S the abundance fitness was -0.032 ± 0.07. Variant E69M has an abundance fitness of 0.18 ± 0.27. E69R gave an abundance fitness of 0.035 ± 0.087. E69C gave an abundance fitness of -0.355 ± 0.31. Variant T22D has an abundance fitness of -0.121 ± 0.39. T22C gave an abundance fitness of -0.131 ± 0.34. In the case of S21H, the abundance fitness is reported as 0.086 ± 0.35. Work on S21W yielded an abundance fitness of -0.443 ± 0.19. Work on S21G yielded an abundance fitness of -0.108 ± 0.091. In the case of S21Q, the abundance fitness is reported as -0.325 ± 0.37. In the case of E66T, the abundance fitness is reported as -0.063 ± 0.13. E66L gave an abundance fitness of 0.01 ± 0.066. Work on E66Q yielded an abundance fitness of -0.057 ± 0.12. With E66G the abundance fitness was 0.006 ± 0.054. For E66N, the abundance fitness was -0.381 ± 0.21. For L55G, the abundance fitness was -0.18 ± 0.047. Variant L55F has an abundance fitness of -0.06 ± 0.12. With L55S the abundance fitness was -0.011 ± 0.049. L55H showed an abundance fitness of 0.085 ± 0.18. Variant L55A has an abundance fitness of -0.108 ± 0.07. L55M showed an abundance fitness of -0.026 ± 0.066. For T51I, the abundance fitness was -0.138 ± 0.12. Variant T51R has an abundance fitness of 0.034 ± 0.054. For T51D, the abundance fitness was -0.042 ± 0.17. With T51C the abundance fitness was -0.027 ± 0.11. For T51N, the abundance fitness was -0.191 ± 0.19. T51M gave an abundance fitness of -0.133 ± 0.088. In the case of T51G, the abundance fitness is reported as -0.048 ± 0.055. With H41R the abundance fitness was -0.755 ± 0.25. With K61V the abundance fitness was 0.069 ± 0.19. Work on K61C yielded an abundance fitness of -0.098 ± 0.18.
